Measured values: patent US20250281611A1 (BIOSCEPTRE AUST, published 2025)

T1: CD19 (UniProt P15391 20-556, limits assumed)
T1 construct: whole, on cells; also called CD19 on JeKo-1
T1 sequence (looked up): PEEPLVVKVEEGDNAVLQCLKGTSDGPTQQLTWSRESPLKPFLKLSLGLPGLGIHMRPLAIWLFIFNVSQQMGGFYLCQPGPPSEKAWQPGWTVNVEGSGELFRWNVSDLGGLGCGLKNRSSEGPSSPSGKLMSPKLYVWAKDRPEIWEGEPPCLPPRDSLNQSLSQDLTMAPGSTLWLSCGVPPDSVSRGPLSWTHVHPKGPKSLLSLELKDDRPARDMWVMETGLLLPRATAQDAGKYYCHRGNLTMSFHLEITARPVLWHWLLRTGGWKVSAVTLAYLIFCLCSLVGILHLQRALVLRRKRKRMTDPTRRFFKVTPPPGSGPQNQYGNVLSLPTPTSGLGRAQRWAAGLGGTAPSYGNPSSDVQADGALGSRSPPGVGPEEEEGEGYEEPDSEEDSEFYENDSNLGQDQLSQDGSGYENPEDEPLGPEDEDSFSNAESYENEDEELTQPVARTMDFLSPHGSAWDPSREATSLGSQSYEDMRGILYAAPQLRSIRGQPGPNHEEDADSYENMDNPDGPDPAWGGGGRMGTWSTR


What was measured:
nfP2X7 CAR 1 [1] = target: T2, nfP2X7 CAR 1; assay: flow cytometry, nfP2X7 CAR 1 T cells (EGFR+ gate), anti-His-FITC detection
T2 construct: CAR-positive cells gated by the co-expressed EGFR marker; also called nfP2X7 targeted CAR; nfP2X7 CAR on EGFR+ T cells
Procedure: (§1) nfP2X₇ CAR T cells were incubated with different BRiDGE variants at saturating concentrations. […] The MFI intensity correlates with the number of secondary bound antibodies bound to the BRiDGEs that are only detected if they are bound to the CAR T cells. EGFR was used as a marker gene to detect the CAR expression. Thus, the EGFR+ T cell population was defined as the CAR expressing cells and the EGFR− T cell population was defined as the CAR negative subset. MFI: median fluorescence intensity. EGFR: epidermal growth factor receptor. BLItz: Bio-Layer interferometry (BLI) technology using HIS-tag identification tips. HIS-tag MFI Ratio: relative index that is calculated by the testing condition MFI divided by the control MFI, which corresponds to the MFI measured on EGFR+ T cells (defined as CAR positive cells) divided by the MFI measured on the EGFR− T cells (defined as CAR negative cells). […] The higher the MFIR, the stronger the binding.

nfP2X7 CAR 1 [2] = target: T2, nfP2X7 CAR 1; assay: flow cytometry, anti-His-FITC, MFI on EGFR+ (CAR+) over EGFR- (CAR-) T cells
Procedure: as §1

nfP2X7 CAR 1 [3] = target: T2, nfP2X7 CAR 1; assay: flow cytometry, anti-His-FITC, MFI on EGFR+ (CAR+) T cells over background 0.44
Procedure: as §1

CD19 [4] = target: T1, CD19; assay: flow cytometry, JeKo-1 cells, BIL03s-AF647 detection, MFI over no-bridge control
Procedure: (§2) JeKo-1 cells were incubated with different CD19 BRiDGE variants at saturating concentrations. […] The MFI intensity correlates with the number of secondary bound antibodies bound to the CD19 BRiDGE variants that are only detected if they are bound to the JeKo-1 cells. MFI: median fluorescence intensity. BLitz: Bio-Layer interferometry (BLI) technology using HIS-tag identification tips. […] The higher the MFIR, the stronger the binding.

CD19 [5] = target: T1, CD19; assay: flow cytometry, JeKo-1 cells, bridge at saturating conc., BIL03s-AF647 detection
Procedure: as §2

CD19 [6] = target: T1, CD19; assay: flow cytometry, JeKo-1 cells, anti-His-FITC detection, MFI over no-bridge control
Procedure: as §2

CD19 [7] = target: T1, CD19; assay: flow cytometry, JeKo-1 cells, bridge at saturating conc., anti-His-FITC detection
Procedure: as §2

Binder | MFI HisTag FITC in EGFR+ Population (nfP2X7 CAR 1 [1]) | HisTag MFI Ratio of EGFR+/EGFR- (nfP2X7 CAR 1 [2]) | HisTag MFI Ratio (background 0.44) (nfP2X7 CAR 1 [3]) | MFIR BIL03 AF647 (CD19 [4]) | MFI Bil03 AF647 (CD19 [5]) | MFIR HisTag FITC (CD19 [6]) | MFI HisTag FITC (CD19 [7])
CD19 BRIDGE variant B12 (Fab) heavy: EVQLVESGGGLVKPGGSLKLSCAASGYTFTSYVMHWVRQAPGKGLEWIGYINPYNDGTKYNEKFQGRVTISSDKSISTAYMELSSLRSEDTAMYYCARGTYYYGTRVFDYWGQGTLVTVSSASTKGPSVFPLAPSSKSTSGGTAALGCLVKDYFPEPVTVSWNSGALTSGVHTFPAVLQSSGLYSLSSVVTVPSSSLGTQTYICNVNHKPSNTKVDKKVEPKSCHHHHHH light: GHNYTTRNILPGLNITSTFHKTSGSGKGGGGSEPKSSDKTHTGSDIVMTQSPATLSLSPGERATLSCRSSKSLQNVNGNTYLYWFQQKPGQSPQLLIYRMSNLNSGVPDRFSGSGSGTEFTLTISSLEPEDFAVYYCMQHLEYPITFGAGTKLEIKRTVAAPSVFIFPPSDEQLKSGTASVVCLLNNFYPREAKVQWKVDNALQSGNSQESVTEQDSKDSTYSLSSTLTLSKADYEKHKVYACEVTHQGLSSPVTKSFNRGEC | 2.12 | 4.2 | 4.8 | 19.7 | 9.08 | 4.36 | 3.36
CD19 BRIDGE variant B13 (Fab, V domains shown) VH: EVQLVESGGGLVKPGGSLKLSCAASGYTFTSYVMHWVRQAPGKGLEWIGYINPYNDGTKYNEKFQGRVTISSDKSISTAYMELSSLRSEDTAMYYCARGTYYYGTRVFDYWGQGTLVTVSS VL: DIVMTQSPATLSLSPGERATLSCRSSKSLQNVNGNTYLYWFQQKPGQSPQLLIYRMSNLNSGVPDRFSGSGSGTEFTLTISSLEPEDFAVYYCMQHLEYPITFGAGTKLEIKR | 2.13 | 4.1 | 4.8 | 11.5 | 5.28 | 3.88 | 2.99
CD19 BRIDGE variant B14 (Fab, V domains shown) VH: EVQLVESGGGLVKPGGSLKLSCAASGYTFTSYVMHWVRQAPGKGLEWIGYINPYNDGTKYNEKFQGRVTISSDKSISTAYMELSSLRSEDTAMYYCARGTYYYGTRVFDYWGQGTLVTVSS VL: DIVMTQSPATLSLSPGERATLSCRSSKSLQNVNGNTYLYWFQQKPGQSPQLLIYRMSNLNSGVPDRFSGSGSGTEFTLTISSLEPEDFAVYYCMQHLEYPITFGAGTKLEIKR | 2.41 | 4.5 | 5.5 | 15.8 | 7.27 | 4.05 | 3.12
CD19 BRIDGE variant B15 (Fab) heavy: EVQLVESGGGLVKPGGSLKLSCAASGYTFTSYVMHWVRQAPGKGLEWIGYINPYNDGTKYNEKFQGRVTISSDKSISTAYMELSSLRSEDTAMYYCARGTYYYGTRVFDYWGQGTLVTVSSASTKGPSVFPLAPSSKSTSGGTAALGCLVKDYFPEPVTVSWNSGALTSGVHTFPAVLQSSGLYSLSSVVTVPSSSLGTQTYICNVNHKPSNTKVDKKVEPKSCHHHHHH light: GHNYTTRNILPGLNITSGGGGSEPKSSDKTHTGGGGSDIVMTQSPATLSLSPGERATLSCRSSKSLQNVNGNTYLYWFQQKPGQSPQLLIYRMSNLNSGVPDRFSGSGSGTEFTLTISSLEPEDFAVYYCMQHLEYPITFGAGTKLEIKRTVAAPSVFIFPPSDEQLKSGTASVVCLLNNFYPREAKVQWKVDNALQSGNSQESVTEQDSKDSTYSLSSTLTLSKADYEKHKVYACEVTHQGLSSPVTKSFNRGEC | 2.61 | 4.8 | 5.9 | 18.7 | 8.58 | 3.78 | 2.91
CD19 BRIDGE variant B16 (Fab) heavy: EVQLVESGGGLVKPGGSLKLSCAASGYTFTSYVMHWVRQAPGKGLEWIGYINPYNDGTKYNEKFQGRVTISSDKSISTAYMELSSLRSEDTAMYYCARGTYYYGTRVFDYWGQGTLVTVSSASTKGPSVFPLAPSSKSTSGGTAALGCLVKDYFPEPVTVSWNSGALTSGVHTFPAVLQSSGLYSLSSVVTVPSSSLGTQTYICNVNHKPSNTKVDKKVEPKSCHHHHHH light: GHNYTTRNILPGLNITSTFHKTSGSGKEPKSSDKTHTGGGGSDIVMTQSPATLSLSPGERATLSCRSSKSLQNVNGNTYLYWFQQKPGQSPQLLIYRMSNLNSGVPDRFSGSGSGTEFTLTISSLEPEDFAVYYCMQHLEYPITFGAGTKLEIKRTVAAPSVFIFPPSDEQLKSGTASVVCLLNNFYPREAKVQWKVDNALQSGNSQESVTEQDSKDSTYSLSSTLTLSKADYEKHKVYACEVTHQGLSSPVTKSFNRGEC | 2.34 | 4.6 | 5.3 | 17.6 | 8.08 | 3.71 | 2.86
CD19 BRIDGE variant B17 (Fab) heavy: EVQLVESGGGLVKPGGSLKLSCAASGYTFTSYVMHWVRQAPGKGLEWIGYINPYNDGTKYNEKFQGRVTISSDKSISTAYMELSSLRSEDTAMYYCARGTYYYGTRVFDYWGQGTLVTVSSASTKGPSVFPLAPSSKSTSGGTAALGCLVKDYFPEPVTVSWNSGALTSGVHTFPAVLQSSGLYSLSSVVTVPSSSLGTQTYICNVNHKPSNTKVDKKVEPKSCHHHHHH light: GHNYTTRNILPGLNITSTFHKTSGSGKGSEPKSSDKTHTGGGGSDIVMTQSPATLSLSPGERATLSCRSSKSLQNVNGNTYLYWFQQKPGQSPQLLIYRMSNLNSGVPDRFSGSGSGTEFTLTISSLEPEDFAVYYCMQHLEYPITFGAGTKLEIKRTVAAPSVFIFPPSDEQLKSGTASVVCLLNNFYPREAKVQWKVDNALQSGNSQESVTEQDSKDSTYSLSSTLTLSKADYEKHKVYACEVTHQGLSSPVTKSFNRGEC | 2.25 | 4.2 | 5.1 | 20.2 | 9.3 | 3.87 | 2.98
CD19 BRIDGE variant B18 (Fab) heavy: EVQLVESGGGLVKPGGSLKLSCAASGYTFTSYVMHWVRQAPGKGLEWIGYINPYNDGTKYNEKFQGRVTISSDKSISTAYMELSSLRSEDTAMYYCARGTYYYGTRVFDYWGQGTLVTVSSASTKGPSVFPLAPSSKSTSGGTAALGCLVKDYFPEPVTVSWNSGALTSGVHTFPAVLQSSGLYSLSSVVTVPSSSLGTQTYICNVNHKPSNTKVDKKVEPKSCHHHHHH light: GHNYTTRNILPGLNITSTFHKTSGSGKGGGGSEPKSSDKTHTGGGGSDIVMTQSPATLSLSPGERATLSCRSSKSLQNVNGNTYLYWFQQKPGQSPQLLIYRMSNLNSGVPDRFSGSGSGTEFTLTISSLEPEDFAVYYCMQHLEYPITFGAGTKLEIKRTVAAPSVFIFPPSDEQLKSGTASVVCLLNNFYPREAKVQWKVDNALQSGNSQESVTEQDSKDSTYSLSSTLTLSKADYEKHKVYACEVTHQGLSSPVTKSFNRGEC | 2.25 | 4.2 | 5.1 | 23.7 | 10.9 | 3.94 | 3.03
CD19 BRIDGE variant B19 (Fab, V domains shown) VH: EVQLVESGGGLVKPGGSLKLSCAASGYTFTSYVMHWVRQAPGKGLEWIGYINPYNDGTKYNEKFQGRVTISSDKSISTAYMELSSLRSEDTAMYYCARGTYYYGTRVFDYWGQGTLVTVSS VL: DIVMTQSPATLSLSPGERATLSCRSSKSLQNVNGNTYLYWFQQKPGQSPQLLIYRMSNLNSGVPDRFSGSGSGTEFTLTISSLEPEDFAVYYCMQHLEYPITFGAGTKLEIKR | 2.16 | 4.1 | 4.9 | 10.7 | 4.9 | 3.51 | 2.7
